Laboratory results published in PMC12680046.

Experiments:
[1] = molecular target: mCherry-EGFR (L858R/T790M)-HomoFC (UniProt P00533); test: split reporter
[2] = molecular target: mCherry-BICD2N-EGFR (Ex19Del/T790M/C797S)-HomoFC
[3] = molecular target: mCherry-BICD2N-EGFR (Ex19Del/T790M/C797S)-HomoFC; test: split reporter

“YFP–DARPin (E69)–BICD2N (from UniProt Q8TD16 1-594) (designed binder)” showed a percent reduction of EGFR oligomerization (HomoFC) [1] of 50%.

In the case of “mCherry-BICD2N-EGFR (Ex19Del/T790M/C797S)-HomoFC (from UniProt Q8TD16;P00533) (receptor)”, the C/N ERK-KTR ratio after EGF stimulation [2] is reported as 0.64, the HomoFC/mCherry ratio (EGF) [3] is reported as 0.12 and the fold lower oligomer signal than WT EGFR at the basal level [3] is reported as 3.3 fold. For the same substance, the fold reduction of the oligomer signal against the nonfused mutant [3] was 18.8 fold.
